Experimental data from patent US20230190943A1, “ALGINIC ACID DERIVATIVE BONDED TO NONSTEROIDAL ANTI-INFLAMMATORY COMPOUND” (MOCHIDA PHARMACEUTICAL CO., LTD., priority 2018, published 2023).

Experiments:
[1] = Release test of free diclofenac, felbinac, ketoprofen or naproxen in sodium phosphate buffer (Example 23); assay type: physicochemical
Procedure: (§1) (set temperature of air conditioner). After confirming that no gel was formed, this solution was dispensed. Immediately after the dissolution, the amount of free diclofenac present in each solution was measured by LC-MS/MS as an initial state (day 0 of storage). Also, the other dispensed solutions were incubated at 37° C. for 1, 3, and 7 days, and then the amount of free diclofenac was measured. […] The MS conditions are as follows. • Ionization mode: ESI-negative • Ion source temperature: 300 degrees • Capillary voltage: -4000 V

[2] = Release test of free diclofenac from conjugates in 20 mM sodium phosphate buffer, 37°C (Example 11); assay type: physicochemical; conditions: for Release Rate in Release Test at pH 5.3: pH 5.3, 37°C; for Release Rate in Release Test at pH 5.3 / Release Rate in Release Test at pH 7.0: free diclofenac; for Release Rate in Release Test at pH 7.0: pH 7.0, 37°C
Procedure: as §1

[3] = pH 5.3, day 1, free drug (diclofenac, felbinac, ketoprofen or naproxen)
[4] = pH 5.3, day 3, free drug (diclofenac, felbinac, ketoprofen or naproxen)
[5] = pH 5.3, day 7, free drug (diclofenac, felbinac, ketoprofen or naproxen)
[6] = pH 7.0, day 1, free drug (diclofenac, felbinac, ketoprofen or naproxen)
[7] = pH 7.0, day 3, free drug (diclofenac, felbinac, ketoprofen or naproxen)
[8] = pH 7.0, day 7, free drug (diclofenac, felbinac, ketoprofen or naproxen)

Substance | Release Rate in Release Test at pH 5.3 [1, 3] | Release Rate in Release Test at pH 5.3 [1, 4] | Release Rate in Release Test at pH 5.3 [1, 5] | Release Rate in Release Test at pH 7.0 [1, 6] | Release Rate in Release Test at pH 7.0 [1, 7] | Release Rate in Release Test at pH 7.0 [1, 8] | Release Rate in Release Test at pH 5.3 ([2]; Day 1, 0.1% w/w conjugate) | Release Rate in Release Test at pH 5.3 ([2]; Day 3, 0.1% w/w conjugate) | Release Rate in Release Test at pH 5.3 ([2]; Day 7, 0.1% w/w conjugate) | Release behaviour in the release test at pH 7.0 (in words) [2] | Release Rate in Release Test at pH 7.0 ([2]; Day 1, 0.1% w/w conjugate) | Release Rate in Release Test at pH 7.0 ([2]; Day 3, 0.1% w/w conjugate) | Release Rate in Release Test at pH 7.0 ([2]; Day 7, 0.1% w/w conjugate)
Diclofenac-(2-Amino-1-(4-(Hydroxymethyl)Piperidin-1-Yl)Ethan-1-One)-Alginic Acid Derivative [Compound 58] | 0.0% | 0.2% | 0.3% | 0.3% | 1.3% | 3.1% |  |  |  |  |  |  | 
Diclofenac-(2-Aminoethanol)-Alginic Acid Derivative [Compound 5b] |  |  |  |  |  |  | 0.0% | 0.0% | 0.3% | stably released | 0.1% | 2.1% | 5.0%
Diclofenac-(2-Amino-1-(4-Hydroxypiperidin-1-Yl)Ethan-1-One)-Alginic Acid Derivative [Compound 63b] | 0.1% | 0.1% | 0.2% | 0.7% | 1.9% | 2.5% |  |  |  |  |  |  | 
Diclofenac-(2-Aminoethanol)-Alginic Acid Derivative [Compound 5c] |  |  |  |  |  |  | 0.0% | 0.1% | 0.4% | stably released | 0.3% | 2.5% | 5.5%
Diclofenac-(2-Amino-N-(3-Hydroxypropyl)Acetamide)-Alginic Acid Derivative [Compound 76b] | 0.3% | 0.5% | 0.6% | 0.4% | 1.4% | 3.6% |  |  |  |  |  |  | 
Diclofenac-(2-Aminoethoxyethanol)-Alginic Acid Derivative [Compound 14a] | 0.1% | 0.2% | 0.4% | 0.6% | 1.9% | 4.2% |  |  |  |  |  |  | 
Diclofenac-(2-Aminoethanol)-Alginic Acid Derivative [Compound 5a] |  |  |  |  |  |  | 0.0% | 0.1% | 0.2% |  | 0.2% | 2.3% | 4.1%
Diclofenac-(2-Amino-N-(1-Hydroxypropan-2-Yl)Acetamide)-Alginic Acid Derivative [Compound 80a] | 0.2% | 0.4% | 0.6% | 0.8% | 2.4% | 5.3% |  |  |  |  |  |  | 
Diclofenac-(N-(Aminoethyl)-2-Hydroxypropanamide)-Alginic Acid Derivative [Compound 47] |  |  |  |  |  |  | 0.0% | 0.1% | 0.7% | stably released | 0.8% | 6.1% | 10.9%
Diclofenac-(2-Amino-N-(2-Hydroxyethyl)Acetamide)-Alginic Acid Derivative [Compound 53d] | 0.1% | 0.5% | 0.6% | 0.7% | 3.0% | 9.3% |  |  |  |  |  |  | 
Diclofenac-(3-Amino-2,2-Difluoropropan-1-Ol)-Alginic Acid Derivative [Compound 36] |  |  |  |  |  |  | 0.0% | 0.5% | 1.0% |  | 1.2% | 8.8% | 12.9%
Diclofenac-(Tyramine)-Alginic Acid Derivative [Compound 32] |  |  |  |  |  |  | 0.0% | 1.5% | 7.6% |  | 0.0% | 5.7% | 15.2%
Diclofenac-((4-(Aminomethyl)Phenyl)Methanol)-Alginic Acid Derivative [Compound 28] |  |  |  |  |  |  | 0.0% | 0.1% | 0.3% |  | 0.1% | 1.2% | 4.0%
Diclofenac-(2-Amino-N-(2-Hydroxyethyl)Acetamide)-Alginic Acid Derivative [Compound 53c] | 0.5% | 0.9% | 1.0% | 0.9% | 2.5% | 7.4% |  |  |  |  |  |  | 
Diclofenac-(Threonine Ethyl Ester)-Alginic Acid Derivative [Compound 24] |  |  |  |  |  |  | 0.0% | 0.0% | 0.0% |  | 0.0% | 1.4% | 5.4%
Felbinac-(2-Amino-N-(2-Hydroxyethyl)Acetamide)-Alginic Acid Derivative [Compound 84] | 0.2% | 0.3% | 0.5% | 0.9% | 3.3% | 7.3% |  |  |  |  |  |  | 
Diclofenac-(2-Amino-N-(3-Hydroxypropyl)Acetamide)-Alginic Acid Derivative [Compound 76a] | 0.1% | 0.2% | 0.4% | 0.5% | 1.3% | 3.5% |  |  |  |  |  |  | 
Diclofenac-(2-Amino-N-(2-Hydroxyethyl)Acetamide)-Alginic Acid Derivative [Compound 53a] | 0.1% | 0.4% | 0.8% | 0.9% | 3.7% | 10.0% |  |  |  |  |  |  | 
Diclofenac-(2-Amino-N-(2-Hydroxypropyl)Acetamide)-Alginic Acid Derivative [Compound 72b] | 0.0% | 0.1% | 0.2% | 0.4% | 1.5% | 3.7% |  |  |  |  |  |  | 
Diclofenac-(2-Amino-N-(2-Hydroxypropyl)Acetamide)-Alginic Acid Derivative [Compound 72a] | 0.0% | 0.1% | 0.2% | 0.3% | 1.0% | 2.2% |  |  |  |  |  |  | 
Diclofenac-(2-Amino-N-(6-Hydroxyhexyl)Acetamide)-Alginic Acid Derivative [Compound 68] | 0.0% | 0.2% | 0.3% | 0.3% | 0.9% | 2.1% |  |  |  |  |  |  | 
Diclofenac-(2-Aminoethoxyethanol)-Alginic Acid Derivative [Compound 14] |  |  |  |  |  |  | 0.0% | 0.0% | 0.0% |  | 0.0% | 0.0% | 0.0%
Diclofenac-(2-Amino-N-(1-Hydroxypropan-2-Yl)Acetamide)-Alginic Acid Derivative [Compound 80b] | 0.2% | 0.3% | 0.7% | 0.7% | 2.3% | 5.6% |  |  |  |  |  |  | 
Diclofenac-(2-Aminoethoxyethanol)-Alginic Acid Derivative [Compound 14b] | 0.1% | 0.2% | 0.5% |  |  |  |  |  |  |  |  |  | 
